Here are results for three molecules from US20050282743A1, “Molecular interactions in cells” (Arbor Vita Corporation, priority 2001, published 2005).

Experiment [1] deals with T1, GST-PDZK1 PDZ domain 2 (Homo sapiens (Human)), Q5T2W1.
T1 chain: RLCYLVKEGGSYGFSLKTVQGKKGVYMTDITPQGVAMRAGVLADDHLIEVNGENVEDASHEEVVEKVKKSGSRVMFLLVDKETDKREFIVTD
Kind of experiment: G assay titration, PDZ 5 ug/ml.

The target of experiment [2] is T2, GST-KIAA0807(S) PDZ domain 1 (Homo sapiens (Human)), Q6P0Q8.
T2 chain: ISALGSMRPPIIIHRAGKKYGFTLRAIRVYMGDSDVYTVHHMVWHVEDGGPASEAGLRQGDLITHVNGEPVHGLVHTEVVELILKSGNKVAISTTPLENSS
Description: G assay titration, PDZ 0.3 ug/ml.

For experiment [3], the target named is T1, GST-PDZK1 PDZ domain 2 (Homo sapiens …). Description: G' assay. Note: key of the grades not given here.
For experiment [4], the target named is T3, GST-Shank 3 PDZ domain 1 (human (hypothetical, computer cloned)), Q9BYB0.
T3 chain: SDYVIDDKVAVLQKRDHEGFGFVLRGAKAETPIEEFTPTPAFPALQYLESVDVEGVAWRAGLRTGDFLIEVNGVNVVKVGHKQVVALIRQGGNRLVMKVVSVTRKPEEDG
Description: G' assay. Note: key of the grades not given here.

Experiment [5] has as its target T4, GST-Shank 1 PDZ domain 1 (Homo sapiens (Human)), Q9UPX8.
T4 chain: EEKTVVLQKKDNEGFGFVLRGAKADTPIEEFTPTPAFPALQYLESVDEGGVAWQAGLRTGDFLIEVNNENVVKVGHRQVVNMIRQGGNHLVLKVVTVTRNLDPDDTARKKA
Description: G' assay. Note: key of the grades not given here.

Experiment [6] has as its target T5, GST-PDZK1 PDZ domains 2, 3, 4, Q5T2W1.
T5 chain: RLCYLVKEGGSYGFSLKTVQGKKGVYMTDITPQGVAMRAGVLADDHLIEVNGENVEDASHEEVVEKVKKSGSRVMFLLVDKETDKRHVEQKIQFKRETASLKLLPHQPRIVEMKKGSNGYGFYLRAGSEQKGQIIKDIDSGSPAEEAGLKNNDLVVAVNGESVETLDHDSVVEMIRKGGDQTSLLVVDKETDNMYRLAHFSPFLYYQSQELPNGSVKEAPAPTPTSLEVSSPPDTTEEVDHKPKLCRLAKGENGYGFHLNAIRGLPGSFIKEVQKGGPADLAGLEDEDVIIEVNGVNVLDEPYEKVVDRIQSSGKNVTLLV
Kind of experiment: G' assay. Note: key of the grades not given here.

The target in experiment [7] is T6, GST-EZRIN Binding Protein 50 PDZ domain 2 (Homo sapiens (Human)), O14745.
T6 chain: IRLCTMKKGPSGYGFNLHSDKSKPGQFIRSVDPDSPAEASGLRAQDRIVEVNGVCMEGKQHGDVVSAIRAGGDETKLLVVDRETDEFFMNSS
Kind of experiment: G' assay. Note: key of the grades not given here.

Experiment [8] concerns the target T7, GST-EZRIN Binding Protein 50 PDZ domain 1 (Homo sapiens (Human)), O14745.
T7 chain: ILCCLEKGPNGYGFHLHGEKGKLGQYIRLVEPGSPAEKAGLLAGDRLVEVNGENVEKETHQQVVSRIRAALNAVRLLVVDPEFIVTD
Description: G' assay. Note: key of the grades not given here.

Experiment [9] concerns the target T8, GST-KIAA0561 PDZ domain 1 (Homo sapiens (Human)), O60307.
T8 chain: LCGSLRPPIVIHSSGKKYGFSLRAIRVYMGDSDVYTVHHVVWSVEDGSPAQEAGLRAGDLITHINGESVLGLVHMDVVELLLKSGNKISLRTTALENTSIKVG
Description: G' assay.

Experiment [10] has as its target T2, GST-KIAA0807(S) PDZ domain 1 (Homo …). Description: G' assay.
Experiment [11] deals with GST-KIAA807 [GST: P08515]. Description: G' assay.
Chain of GST-KIAA807 [GST: P08515] (P08515 whole entry, the tested form may be a part): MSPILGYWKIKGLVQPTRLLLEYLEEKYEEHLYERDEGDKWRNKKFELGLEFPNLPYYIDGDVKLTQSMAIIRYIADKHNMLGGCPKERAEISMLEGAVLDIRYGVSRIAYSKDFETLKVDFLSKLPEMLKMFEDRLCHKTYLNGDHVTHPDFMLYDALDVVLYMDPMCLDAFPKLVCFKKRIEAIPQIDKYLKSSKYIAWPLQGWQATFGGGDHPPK
In experiment [12] the target is T4, GST-Shank 1 PDZ domain 1 (Homo sapiens …). Kind of experiment: G assay titration, PDZ 5 ug/ml.
Experiment [13] concerns the target T2, GST-KIAA0807(S) PDZ domain 1 (Homo …). Kind of experiment: G assay titration, PDZ 0.5 ug/ml.
Experiment [14] addresses T9, GST-PTPL1 PDZ domain 2 (Homo sapiens (Human)), Q12923.
T9 chain: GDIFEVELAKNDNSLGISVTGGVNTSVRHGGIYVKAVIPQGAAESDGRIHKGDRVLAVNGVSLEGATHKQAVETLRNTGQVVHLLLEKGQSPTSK
Kind of experiment: G assay titration, PDZ 1 ug/ml.

Experiment [15] has as its target T10, GST-KIAA1634 PDZ domain 2 (Homo sapiens (Human)), Q5TCQ9.
T10 chain: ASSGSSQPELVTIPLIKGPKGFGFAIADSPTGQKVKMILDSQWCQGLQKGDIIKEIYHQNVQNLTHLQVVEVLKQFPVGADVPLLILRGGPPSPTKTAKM
Description: G' assay.

The target in experiment [16] is T11, GST-INADL PDZ domain 8 (Homo sapiens (Human)), Q8NI35.
T11 chain: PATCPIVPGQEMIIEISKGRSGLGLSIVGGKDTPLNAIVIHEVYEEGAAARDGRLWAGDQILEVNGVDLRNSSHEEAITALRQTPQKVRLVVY
Kind of experiment: G' assay.

The target of experiment [17] is GST-BAI-1 Associated Protein PDZ domain 3 (Homo sapiens (Human)), Q96QZ7. Description: G' assay. Note: key of the grades not given here.
Chain of GST-BAI-1 Associated Protein PDZ domain 3 (Homo sapiens (Human)), Q96QZ7 (Q96QZ7 other isoform, or with tags, fused parts or gaps): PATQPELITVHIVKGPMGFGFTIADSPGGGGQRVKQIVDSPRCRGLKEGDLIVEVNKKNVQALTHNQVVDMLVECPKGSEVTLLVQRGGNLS
In experiment [18] the target is T12, GST-FLJ 10324 PDZ domain 1 [GST: P08515].
T12 chain: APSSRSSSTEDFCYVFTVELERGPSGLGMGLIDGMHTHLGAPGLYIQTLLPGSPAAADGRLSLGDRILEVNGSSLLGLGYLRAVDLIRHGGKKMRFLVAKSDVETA
Kind of experiment: G' assay.

Experiment [19] deals with T13, GST-MINT1 PDZ domain 2 (Mus musculus (Mouse)), B2RUJ5.
T13 chain: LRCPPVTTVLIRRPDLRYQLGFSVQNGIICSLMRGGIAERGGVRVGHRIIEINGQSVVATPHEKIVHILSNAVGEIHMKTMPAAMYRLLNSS
Description: G' assay.

Experiment [20] addresses T14, GST-Syntrophin gamma 1 PDZ domain 1 (Homo sapiens (Human)), Q9NSN8.
T14 chain: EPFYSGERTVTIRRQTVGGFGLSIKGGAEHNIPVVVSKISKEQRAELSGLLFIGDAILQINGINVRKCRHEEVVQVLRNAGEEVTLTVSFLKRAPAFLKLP
Kind of experiment: G' assay.

Experiment [21] concerns the target T15, GST-AIPC PDZ domain 1 (Homo sapiens (Human)), O15018.
T15 chain: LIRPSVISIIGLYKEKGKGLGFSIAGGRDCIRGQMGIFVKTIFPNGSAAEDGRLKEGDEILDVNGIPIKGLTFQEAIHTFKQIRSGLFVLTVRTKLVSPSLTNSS
Description: G' assay.

Experiment [22] concerns the target GST-Atrophin-1 Interacting Protein PDZ domain 5 (Rattus norvegicus (Rat)), O88382. Description: G' assay. Note: key of the grades not given here.
Experiment [23] concerns the target T16, GST-FLJ00011 PDZ domain 1 (Homo sapiens (Human)), Q9H5P4.
T16 chain: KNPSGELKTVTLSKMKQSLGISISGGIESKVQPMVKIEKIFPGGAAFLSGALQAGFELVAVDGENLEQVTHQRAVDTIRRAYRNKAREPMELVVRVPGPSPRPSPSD
Kind of experiment: G' assay.

Experiment [24] concerns the target T17, GST-HEMBA 1003117 PDZ domain 1 (Homo sapiens (Human)), Q96JH8.
T17 chain: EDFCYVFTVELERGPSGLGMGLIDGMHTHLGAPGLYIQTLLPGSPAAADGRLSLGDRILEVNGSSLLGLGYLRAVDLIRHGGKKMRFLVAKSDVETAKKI
Description: G' assay.

Experiment [25] has as its target T18, GST-TIP1 PDZ domain 1 (Table 9 insert) (Homo sapiens (Human)), O14907.
T18 chain: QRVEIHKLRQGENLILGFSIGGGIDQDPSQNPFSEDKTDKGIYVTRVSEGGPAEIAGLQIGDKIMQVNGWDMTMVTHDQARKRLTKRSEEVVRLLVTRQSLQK
Description: G' assay.

The target of experiment [26] is T9, GST-PTPL1 PDZ domain 2 (Homo sapiens …). Kind of experiment: G' assay.
The target of experiment [27] is T19, GST-MUPP1 PDZ domain 13 (Homo sapiens (Human)), O75970.
T19 chain: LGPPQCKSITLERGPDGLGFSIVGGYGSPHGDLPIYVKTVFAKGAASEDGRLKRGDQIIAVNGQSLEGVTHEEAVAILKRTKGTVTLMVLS
Description: G' assay.

The target in experiment [28] is GST-PIST PDZ domain 1 (Mus musculus (Mouse)), Q8BH60. Description: G' assay. Note: key of the grades not given here.
Experiment [29] deals with T20, GST-MINT1 PDZ domains 1, 2, Q02410.
T20 chain: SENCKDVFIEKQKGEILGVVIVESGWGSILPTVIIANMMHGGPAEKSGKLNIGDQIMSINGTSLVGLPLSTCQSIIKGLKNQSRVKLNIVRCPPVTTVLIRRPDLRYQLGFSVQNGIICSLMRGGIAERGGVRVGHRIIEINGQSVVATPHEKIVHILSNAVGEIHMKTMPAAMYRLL
Kind of experiment: G' assay.

Experiment [30] addresses T21, GST-GRIP 1 PDZ domain 3 (Homo sapiens (Human)), Q9Y3R0.
T21 chain: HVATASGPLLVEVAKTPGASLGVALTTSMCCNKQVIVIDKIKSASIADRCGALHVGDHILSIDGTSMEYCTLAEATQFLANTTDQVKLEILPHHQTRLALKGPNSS
Description: G' assay.

For experiment [31], the target named is T22, GST-PTPL1 PDZ domain 4 (Homo sapiens (Human)), Q12923.
T22 chain: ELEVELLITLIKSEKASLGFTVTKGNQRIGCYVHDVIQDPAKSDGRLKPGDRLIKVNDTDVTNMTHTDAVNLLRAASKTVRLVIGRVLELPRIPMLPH
Description: G' assay.

Experiment [32] has as its target GST-TAX IP2 PDZ domain 1 [GST: P08515]. Kind of experiment: G assay titration, PDZ 1 ug/ml.
The target is the same in experiment [33]. Kind of experiment: G' assay.

Chain of GST-TAX IP2 PDZ domain 1 [GST: P08515] (P08515 whole entry, the tested form may be a part): as the sequence (P08515 whole entry, the tested form may be a part) above
Chain of GST-Atrophin-1 Interacting Protein PDZ domain 5 (Rattus norvegicus (Rat)), O88382 (O88382 1128-1225): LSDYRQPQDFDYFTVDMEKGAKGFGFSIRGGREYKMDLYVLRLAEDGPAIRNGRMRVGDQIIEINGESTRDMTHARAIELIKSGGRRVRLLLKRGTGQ

Regarding PSWRRSSLSESENATSLTTF (modifications not checked) [BLR-1], the Kd came to 2000 nM in experiment [1] and 1000 nM in experiment [2]. The Classification is 1 A450 class in experiment [3]; 3 A450 class in experiment [4]; 3 A450 class in experiment [5]; 1 A450 class in experiment [6]; 3 A450 class in experiment [7]; 3 A450 class in experiment [8]. Moreover, the values for the Classification in [9], in experiment [10] and in [11] were 1 A450 class, 2 A450 class and 2 A450 class, respectively.
Regarding DSDPENEPFDEDQHTQITKV (modifications not checked) [PTEN], the Kd in experiment [12] was 1500 nM; in experiment [13], 300 nM; in [14], 300 nM. Also, the Classification in [15] is 5 A450 class; in [16], 1 A450 class; in experiment [17] it was 2 A450 class; in experiment [18], 1 A450 class; in experiment [19], 1 A450 class; in experiment [20], 1 A450 class. The Classification in experiment [21] stood at 1 A450 class; in experiment [22], 2 A450 class; in experiment [5] it was 3 A450 class; in experiment [23], 3 A450 class; in [24] it was 1 A450 class; in experiment [25], 2 A450 class. Also, the Classification in experiment [26] came out at 4 A450 class; in experiment [27], 5 A450 class; in [28], 1 A450 class; in experiment [29], 1 A450 class; in [30] it was 1 A450 class; in [10], 5 A450 class. For the same molecule, the Classification amounted to 1 A450 class in [31] and 5 A450 class in [11].
In [32], VDSERRPHFPQFSYSASSTA (modifications not checked) [AKT1] yielded a Kd of 2500 nM. Also, the Classification in experiment [33] turned out to be 4 A450 class; in experiment [10], 1 A450 class; in experiment [11], 1 A450 class.

The term Kd denotes a measure of binding affinity in units of concentration. Read a low Kd as a tighter complex.
